The results in this text go back to PMC11501004.

The target of this assay is GST-LEA12^OR (Oryza rufipogon Griff.). As to the kind of experiment: MST. Conditions: scale: fold.

B1: MBP-OsSAPK10 (natural protein)
chain: MDRAALTVGPGMDMPIMHDGDRYELVRDIGSGNFGVARLMRSRADGQLVAVKYIERGDKIDENVQREIINHRSLRHPNIIRFKEVILTPTHLAIVMEYASGGELFERICNAGRFSEDEARFFFQQLISGVSYCHSMQVCHRDLKLENTLLDGSTAPRLKICDFGYSKSSVLHSQPKSTVGTPAYIAPEVLLKKEYDGKIADVWSCGVTLYVMLVGAYPFEDPDEPKNFRKTIQRILGVQYSIPDYVHISPECRDLIARIFVANPATRISIPEIRNHPWFLKNLPADLMDDSKMSSQYEEPEQPMQSMDEIMQILAEATIPAAGSGGINQFLNDGLDLDDDMEDLDSDPDLDVESSGEIVYAM
For the molecule B1, the Kd relative to that of LEA12^93-11 came to 0.143.
